Results: US20230374148A1, “BINDING MOLECULES THAT MULTIMERISE CD45” (UCB BIOPHARMA SRL, priority 2020, published 2023)

How the values were obtained:
Human whole blood = test: Apoptosis of lymphocytes in whole blood; type: cell-based; details: 5 hrs
Protocol: Human whole blood (Lithium heparin tubes) was taken from two donors (HTA #051119-01 & #051119-02) at UCB Pharma Slough, UK according to approved ethical sample collection protocol.
In a Greiner 96-well non-binding microplate, Fab-X and Fab-Y combinations 6294-X/4133-Y and NegCtrl-X/4133-Y, were added to PBS to give a Fab-KD-Fab concentration of 2750 nM. Similarly, a 2750 nM stock of 4133-6294 BYbe in PBS was prepared. The microplate was incubated for 1 hr at 37° C., 5% CO2. Following the incubation, Fab-KD-Fab and BYbe reagents were then serially diluted in PBS 1 in 5, nine times to produce to form a 10-point dose curve.
5 μl of each Fab-KD-Fab or BYbe dilution was added to Nunc™ 96-Well Polypropylene DeepWell™ plates (ThermoFisher). Then 50 μl of blood was added to each well, the plate gently mixed and sealed with a plate seal that allows gas exchange. These cells were then incubated for 5 hrs at 37° C., 5% CO2. Running the assay for a short time period avoids the need to add an anti-coagulant.
Following the incubation, 950 μl of BD Phosflow BD Lyse/Fix (cat no. BD558049, FisherScientific) was added to each well and the plate incubated at 37° C., 5% CO2 for 10 minutes. The plate was then spun at 500 g for 8 min, at 4° C. The buffer was aspirated and 1 ml of FACS buffer (PBS+1% bovine serum albumin (BSA)+0.1% NaN3+2 mM EDTA, Sigma Aldrich) added to wash cells using an Integra Viaflo 96 channel pipette. The plate was spun at 500 g for 8 min, at 4° C. As before, the buffer was aspirated and 1 ml of FACS buffer added to wash cells. This was followed by a slower spin at 250 g for 10 min, at 4° C. Again, buffer was aspirated and 1 ml of FACS buffer added to wash cells.
The plate was re-spun at 500 g for 8 min, at 4° C. Buffer was aspirated leaving the cells in a minimal residual volume for cell-specific antibody staining. 20 μl of cell-specific antibody cocktail (shown in Table 7 below) was added to the wells and the plate incubated for 1 hr at 4° C.
Following the incubation with the antibody cocktail, cells were washed twice as outlined above and buffer aspirated to leave the cells in 20 μl residual buffer. 20 μl of FACS buffer was then added to samples to dilute the cells. Cells were analysed live using the Intellicyt iQue Screener PLUS. Live cell counts were extracted as metrics and graphical representations generated using Graphpad Prism version 8.1 (Graphpad). Asymmetric (five parameter) curve fitting was applied to derive maximal % cell reduction and EC50 values.

CD45 ECD = molecular target: T1, CD45 ECD (Homo sapiens, UniProt P08575); test: Sedimentation velocity, analytical ultracentrifuge; type: binding; details: for Experimental S value: molar 1:1 mixture
T1 construct: extracellular domain of CD45 (UniProtKB—P08575, residue positions 225-573); TEV cleavage site (C); 10-His tag (C); made in house; host or cells: HEK293
T1 sequence (P08575 225-573): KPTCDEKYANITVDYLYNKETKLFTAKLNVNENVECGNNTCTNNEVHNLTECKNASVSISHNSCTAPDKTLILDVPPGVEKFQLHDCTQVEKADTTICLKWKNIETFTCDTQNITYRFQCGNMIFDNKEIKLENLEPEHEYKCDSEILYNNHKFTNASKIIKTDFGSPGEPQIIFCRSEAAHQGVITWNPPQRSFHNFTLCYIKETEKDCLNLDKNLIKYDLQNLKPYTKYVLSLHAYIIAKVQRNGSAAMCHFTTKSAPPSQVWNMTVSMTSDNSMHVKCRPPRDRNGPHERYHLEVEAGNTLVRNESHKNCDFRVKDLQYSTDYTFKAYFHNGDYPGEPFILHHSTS
Protocol: CD45 ECD and 4133-6294 BYbe were mixed in a molar ratio of 1:1 and incubated for 1 hour at room temperature. The molar ratio was determined using the predicted mass of 4133-6294 BYbe at 73.5 kDa and the mass of CD45 ECD as determined by mass photometry at 62 kDa.
The CD45 ECD-4133-6294 BYbe mixture, CD45 ECD only or 4133-6294 BYbe only were loaded into cells with 2-channel charcoal-epon centrepieces with 12 mm optical path length and glass quartz glass windows. The corresponding buffer was loaded into the reference channel of each cell (the instrument functions like a dual beam spectrometer). Those loaded cells were then placed into an AN-60Ti analytical rotor, loaded into a Beckman-coulter Optima analytical ultracentrifuge and brought to 20° C. The rotor was then brought to 3,000 rpm and the samples were scanned at 280 nm to confirm proper cell loading and appropriate adjustment of the laser, via the laser delay setting. The rotor was then brought to the final run speed of 50,000 rpm. Scans were recorded every 20 seconds for 8 hours. Radial scans ranged from 5.75 to 7.25 cm.
The data were analysed using the c(s) method developed by peter Shuck at the N.I.H and implemented in his analysis program SEDFIT version 14.6e. In this approach many raw data scans directly fitted (36,000 data points for each sample in this case) to derive the distribution of sedimentation coefficients, while modelling the influence of diffusion on the data in order to enhance the resolution. The method works by assigning a diffusion coefficient to each value of sedimentation coefficient based on an assumption that all species have the same overall hydrodynamic shape (with shape defined by the frictional coefficient relative to that for a sphere, f/f0). The f/f0 values were varied to find the best overall fit of the data for each sample. A maximum entropy regularization probability of 0.95 was used and time invariant noise was removed. The analysis was performed using the standard solvent model.

B1: 4133-6294 BYbe: anti-CD45 BYbe (Fab-scFv): 4133 Fab HC-G4S linker-6294 scFv heavy chain paired with 4133 light chain (antibody)
heavy: QEQLVESGGGLVQPEGSLTLTCTASGFSFSGNYYMCWVRQAPGKGLEWIGCLYTGSSGSTYYASWAKGRFTISKTSSTTVTLQMTSLTAADTATYFCARDLGYEIDGYGGLWGQGTLVTVSSGQPKAPSVFPLAPCCGDTPSSTVTLGCLVKGYLPEPVTVTWNSGTLTNGVRTFPSVRQSSGLYSLSSVVSVTSSSQPVTCNVAHPATNTKVDKTVAPSTCSKPGGGGSGGGGSEVQLVESGAELARPGASVKMSCKASGYTFTSYTMHWVKQRPGQCLEWIGYINPSSGYTEYNQKFKDKTTLTADKSSSTAYLQLSSLTSEDSAVYYCARVGDGFYPSWLAYWGQGTLVTVSSGGGGSGGGGSGGGGSGGGGSDIQMTQSPKFLLVSAGDRVTITCKASQSVRNDVAWYQQKPGQSPKLLIFYASKRYTGVPDRFTGSGYGTDFTFTISTVQAEDLAVYFCQQDYSSPTTFGCGTKLEIK
light: AQVLTQTPSPVSAVVGGTVSISCQASQSVYNNNNLSWYQQKPGQPPKLLIYDASKLASGVPSRFKGSGSGTQFTLTISGVQCDDAATYYCLGGYYSSGWYFAFGGGTKVVVKRTPVAPTVLIFPPAADQVATGTVTIVCVANKYFPDVTVTWEVDGTTQTTGIENSKTPQNSADCTYNLSSTLTLTSTQYNSHKEYTCKVTQGTTSVVQSFNRGDC
- Max % reduction (Human whole blood; CD4+, Donor 1, whole blood): 50%
- Max % reduction (Human whole blood; CD4+, Donor 2, whole blood): 54%
- Max % reduction (Human whole blood; Total lymphocytes, Donor 1, whole blood): 34%
- Max % reduction (Human whole blood; Total lymphocytes, Donor 2, whole blood): 44%
- Experimental S value (CD45 ECD; CD45 1:1 BYbe complex): 6.9 S
- Percentage of area under the curve (CD45 ECD; CD45 1:1 BYbe in molar 1:1 mixture): 11.99%
- Experimental S value (CD45 ECD; CD45 2:1 BYbe complex): 7.15 S
- Experimental S value (CD45 ECD; CD45 2:2 BYbe complex): 8.78 S
- Percentage of area under the curve (CD45 ECD; CD45 2:2 BYbe in molar 1:1 mixture): 37.7%
- Experimental S value (CD45 ECD; CD45 3:3 BYbe complex): 10.04 S
- Percentage of area under the curve (CD45 ECD; CD45 3:3 BYbe in molar 1:1 mixture): 35.7%
- Experimental S value (CD45 ECD; CD45 4:3 BYbe complex): 11.12 S
- Experimental S value (CD45 ECD; CD45 4:4 BYbe complex): 13.3 S
- Percentage of area under the curve (CD45 ECD; CD45 4:4 BYbe in molar 1:1 mixture): 3.46%
- Percentage of area under the curve (CD45 ECD; CD45 (uncomplexed) in molar 1:1 mixture of CD45 ECD and BYbe): 9.21%
